Reference: US10941182 (Amgen, dated 2021)
Non-standard residues stand in square brackets, D forms with d. dBip = N[C@H](Cc1ccc(-c2ccccc2)cc1)C(=O)O; Oic = O=C(O)[C@@H]1C[C@@H]2CCCC[C@@H]2N1; Phe(4-Cl) = N[C@@H](Cc1ccc(Cl)cc1)C(=O)O; Phe(4-I) = N[C@@H](Cc1ccc(I)cc1)C(=O)O; NMehArg = CN[C@@H](CCCCNC(=N)N)C(=O)O; NMeR = CN[C@@H](CCCNC(=N)N)C(=O)O; hArg = N=C(N)NCCCC[C@H](N)C(=O)O; Cha = N[C@@H](CC1CCCCC1)C(=O)O; NMeL = CN[C@@H](CC(C)C)C(=O)O; Nle = CCCC[C@H](N)C(=O)O; Aib = CC(C)(N)C(=O)O

Legend:
rat APJ receptor = target: T1, rat APJ receptor (rat, UniProt Q9JHG3 1-377); test: cell-based or functional assay
T1 sequence (looked up): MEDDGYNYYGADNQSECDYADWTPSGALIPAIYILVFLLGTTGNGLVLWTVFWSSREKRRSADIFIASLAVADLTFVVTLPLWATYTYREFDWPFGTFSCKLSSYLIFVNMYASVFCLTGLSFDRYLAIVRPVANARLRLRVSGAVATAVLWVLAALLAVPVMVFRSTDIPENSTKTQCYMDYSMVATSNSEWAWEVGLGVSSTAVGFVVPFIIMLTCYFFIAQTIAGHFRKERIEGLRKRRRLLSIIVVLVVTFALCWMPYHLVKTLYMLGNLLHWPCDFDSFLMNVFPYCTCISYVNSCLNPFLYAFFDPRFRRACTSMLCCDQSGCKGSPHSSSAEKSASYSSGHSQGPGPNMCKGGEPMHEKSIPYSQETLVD

human APJ receptor = target: T2, human APJ receptor (human, UniProt P35414 1-380); test: cell-based or functional assay
T2 sequence (looked up): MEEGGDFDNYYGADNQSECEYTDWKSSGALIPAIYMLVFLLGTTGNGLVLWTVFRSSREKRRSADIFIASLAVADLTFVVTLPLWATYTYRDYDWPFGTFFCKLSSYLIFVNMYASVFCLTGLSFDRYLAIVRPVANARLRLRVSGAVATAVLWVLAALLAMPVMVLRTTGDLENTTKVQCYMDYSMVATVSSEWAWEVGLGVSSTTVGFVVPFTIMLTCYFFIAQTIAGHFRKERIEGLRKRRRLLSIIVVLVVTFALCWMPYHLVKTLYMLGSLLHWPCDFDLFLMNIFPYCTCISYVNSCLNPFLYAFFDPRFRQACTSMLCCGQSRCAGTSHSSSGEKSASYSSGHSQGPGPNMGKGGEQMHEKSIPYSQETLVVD

B1: SEQ ID NO: 84 (peptide)
peptide: Ac-[hArg][dR]Q[hArg]P[dR][NMeL]SHKE[Oic][Phe(4-I)]P[dBip]-OH
SMILES: CC(=O)N[C@@H](CCCCNC(=N)N)C(=O)N[C@H](CCCNC(=N)N)C(=O)N[C@@H](CCC(N)=O)C(=O)N[C@@H](CCCCNC(=N)N)C(=O)N1CCC[C@H]1C(=O)N[C@H](CCCNC(=N)N)C(=O)N(C)[C@@H](CC(C)C)C(=O)N[C@@H](CO)C(=O)N[C@@H](Cc1c[nH]cn1)C(=O)N[C@@H](CCCCN)C(=O)N[C@@H](CCC(=O)O)C(=O)N1[C@H](C(=O)N[C@@H](Cc2ccc(I)cc2)C(=O)N2CCC[C@H]2C(=O)N[C@H](Cc2ccc(-c3ccccc3)cc2)C(=O)O)C[C@@H]2CCCC[C@@H]21
EC50 Rat APJ Receptor (rat APJ receptor): 89.3 nM
EC50 Human APJ Receptor (human APJ receptor): 18.1 nM

B2: SEQ ID NO: 87 (peptide)
peptide: Ac-[hArg][dR]Q[hArg]P[dR][NMeL]SHKG[Oic][Phe(4-I)]E[dBip]-OH
SMILES: CC(=O)N[C@@H](CCCCNC(=N)N)C(=O)N[C@H](CCCNC(=N)N)C(=O)N[C@@H](CCC(N)=O)C(=O)N[C@@H](CCCCNC(=N)N)C(=O)N1CCC[C@H]1C(=O)N[C@H](CCCNC(=N)N)C(=O)N(C)[C@@H](CC(C)C)C(=O)N[C@@H](CO)C(=O)N[C@@H](Cc1c[nH]cn1)C(=O)N[C@@H](CCCCN)C(=O)NCC(=O)N1[C@H](C(=O)N[C@@H](Cc2ccc(I)cc2)C(=O)N[C@@H](CCC(=O)O)C(=O)N[C@H](Cc2ccc(-c3ccccc3)cc2)C(=O)O)C[C@@H]2CCCC[C@@H]21
EC50 Rat APJ Receptor (rat APJ receptor): 58.9 nM
EC50 Human APJ Receptor (human APJ receptor): 52.7 nM

B3: SEQ ID NO: 86 (peptide)
peptide: Ac-[hArg][dR]Q[hArg]P[dR][NMeL]SHKG[Oic]EP[dBip]-OH
SMILES: CC(=O)N[C@@H](CCCCNC(=N)N)C(=O)N[C@H](CCCNC(=N)N)C(=O)N[C@@H](CCC(N)=O)C(=O)N[C@@H](CCCCNC(=N)N)C(=O)N1CCC[C@H]1C(=O)N[C@H](CCCNC(=N)N)C(=O)N(C)[C@@H](CC(C)C)C(=O)N[C@@H](CO)C(=O)N[C@@H](Cc1c[nH]cn1)C(=O)N[C@@H](CCCCN)C(=O)NCC(=O)N1[C@H](C(=O)N[C@@H](CCC(=O)O)C(=O)N2CCC[C@H]2C(=O)N[C@H](Cc2ccc(-c3ccccc3)cc2)C(=O)O)C[C@@H]2CCCC[C@@H]21
EC50 Rat APJ Receptor (rat APJ receptor): > 4170 nM
EC50 Human APJ Receptor (human APJ receptor): > 4170 nM

B4: SEQ ID NO: 85 (peptide)
peptide: Ac-[hArg][dR]Q[hArg]P[dR][NMeL]SHKGE[Phe(4-I)]P[dBip]-OH
SMILES: CC(=O)N[C@@H](CCCCNC(=N)N)C(=O)N[C@H](CCCNC(=N)N)C(=O)N[C@@H](CCC(N)=O)C(=O)N[C@@H](CCCCNC(=N)N)C(=O)N1CCC[C@H]1C(=O)N[C@H](CCCNC(=N)N)C(=O)N(C)[C@@H](CC(C)C)C(=O)N[C@@H](CO)C(=O)N[C@@H](Cc1c[nH]cn1)C(=O)N[C@@H](CCCCN)C(=O)NCC(=O)N[C@@H](CCC(=O)O)C(=O)N[C@@H](Cc1ccc(I)cc1)C(=O)N1CCC[C@H]1C(=O)N[C@H](Cc1ccc(-c2ccccc2)cc1)C(=O)O
EC50 Rat APJ Receptor (rat APJ receptor): > 4170 nM
EC50 Human APJ Receptor (human APJ receptor): > 4170 nM

B5: SEQ ID NO: 80 (peptide)
peptide: Ac-[hArg][dR]Q[hArg]P[dR]ESHKG[Oic][Phe(4-I)]P[dBip]-OH
SMILES: CC(=O)N[C@@H](CCCCNC(=N)N)C(=O)N[C@H](CCCNC(=N)N)C(=O)N[C@@H](CCC(N)=O)C(=O)N[C@@H](CCCCNC(=N)N)C(=O)N1CCC[C@H]1C(=O)N[C@H](CCCNC(=N)N)C(=O)N[C@@H](CCC(=O)O)C(=O)N[C@@H](CO)C(=O)N[C@@H](Cc1c[nH]cn1)C(=O)N[C@@H](CCCCN)C(=O)NCC(=O)N1[C@H](C(=O)N[C@@H](Cc2ccc(I)cc2)C(=O)N2CCC[C@H]2C(=O)N[C@H](Cc2ccc(-c3ccccc3)cc2)C(=O)O)C[C@@H]2CCCC[C@@H]21
EC50 Rat APJ Receptor (rat APJ receptor): 68.7 nM
EC50 Human APJ Receptor (human APJ receptor): 127 nM

Ac-[hArg][dR]QEP[dR][NMeL]SHKG[Oic][Phe(4-I)]P[dBip]-OH [SEQ ID NO: 77]
EC50 Rat APJ Receptor (rat APJ receptor): 2.84 nM
EC50 Human APJ Receptor (human APJ receptor): 4.92 nM

Ac-E[dR]Q[hArg]P[dR][NMeL]SHKG[Oic][Phe(4-I)]P[dBip]-OH [SEQ ID NO: 75]
EC50 Rat APJ Receptor (rat APJ receptor): 1.08 nM
EC50 Human APJ Receptor (human APJ receptor): 1.56 nM

B6: SEQ ID NO: 74 (peptide)
peptide: Ac-Q[hArg][NMehArg]LSHKGP[Nle]P[Phe(4-Cl)]-OH
SMILES: CCCC[C@H](NC(=O)[C@@H]1CCCN1C(=O)CNC(=O)[C@H](CCCCN)NC(=O)[C@H](Cc1c[nH]cn1)NC(=O)[C@H](CO)NC(=O)[C@H](CC(C)C)NC(=O)[C@H](CCCCNC(=N)N)N(C)C(=O)[C@H](CCCCNC(=N)N)NC(=O)[C@H](CCC(N)=O)NC(C)=O)C(=O)N1CCC[C@H]1C(=O)N[C@@H](Cc1ccc(Cl)cc1)C(=O)O
EC50 Rat APJ Receptor (rat APJ receptor): 17.3 nM
EC50 Human APJ Receptor (human APJ receptor): 0.48 nM

B7: SEQ ID NO: 61 (peptide)
peptide: Ac-Q[hArg]P[NMeR][Cha]SHKG[Oic][Nle]P[Phe(4-Cl)]-OH
SMILES: CCCC[C@H](NC(=O)[C@@H]1C[C@@H]2CCCC[C@@H]2N1C(=O)CNC(=O)[C@H](CCCCN)NC(=O)[C@H](Cc1c[nH]cn1)NC(=O)[C@H](CO)NC(=O)[C@H](CC1CCCCC1)NC(=O)[C@H](CCCNC(=N)N)N(C)C(=O)[C@@H]1CCCN1C(=O)[C@H](CCCCNC(=N)N)NC(=O)[C@H](CCC(N)=O)NC(C)=O)C(=O)N1CCC[C@H]1C(=O)N[C@@H](Cc1ccc(Cl)cc1)C(=O)O
EC50 Rat APJ Receptor (rat APJ receptor): 0.189 nM
EC50 Human APJ Receptor (human APJ receptor): 0.159 nM

B8: SEQ ID NO: 72 (peptide)
peptide: Ac-QR[NMeR]LSHKGP[Nle]P[Phe(4-Cl)]-OH
SMILES: CCCC[C@H](NC(=O)[C@@H]1CCCN1C(=O)CNC(=O)[C@H](CCCCN)NC(=O)[C@H](Cc1c[nH]cn1)NC(=O)[C@H](CO)NC(=O)[C@H](CC(C)C)NC(=O)[C@H](CCCNC(=N)N)N(C)C(=O)[C@H](CCCNC(=N)N)NC(=O)[C@H](CCC(N)=O)NC(C)=O)C(=O)N1CCC[C@H]1C(=O)N[C@@H](Cc1ccc(Cl)cc1)C(=O)O
EC50 Rat APJ Receptor (rat APJ receptor): 40.6 nM
EC50 Human APJ Receptor (human APJ receptor): 1.36 nM

QRPRXSHKGPXXF ({Acetyl-NH}qRP[NMeArg][Cha]SHKG[aMePro][Nle][Aib][4-Cl-F]{COOH}) [SEQ ID NO: 93]
EC50 Rat APJ Receptor (rat APJ receptor): 0.79 nM
EC50 Human APJ Receptor (human APJ receptor): 0.229 nM

Ac-QRP[NMeR][Cha]SHKG[Oic][Nle][Aib][Phe(4-Cl)]-OH [SEQ ID NO: 92]
EC50 Rat APJ Receptor (rat APJ receptor): 3.23 nM
EC50 Human APJ Receptor (human APJ receptor): 0.679 nM

RLIEDICLPRWGCLWXXQRPRLSHKGPXPF ({Acetyl-NH}RLIEDICLPRWGCLW[Aeea][Aeea]QRP[NMeArg]LSHKGP[Nle]P[4-Cl-F]{COOH}) [SEQ ID NO: 91]
EC50 Rat APJ Receptor (rat APJ receptor): 0.124 nM
EC50 Human APJ Receptor (human APJ receptor): 0.0357 nM

RLIEDICLPRWGCLWEDDXXQRPRLSHKGPXPF ({Acetyl-NH}RLIEDICLPRWGCLWEDD[Aeea][Aeea]QRP[NMeArg]LSHKGP[Nle]P[4-Cl-F]{COOH}) [SEQ ID NO: 90]
EC50 Rat APJ Receptor (rat APJ receptor): 0.633 nM
EC50 Human APJ Receptor (human APJ receptor): 0.14 nM

B9: SEQ ID NO: 66 (peptide)
peptide: Ac-RQRP[NMeR][Cha]SHKGP[Nle]P[Phe(4-Cl)]-OH
SMILES: CCCC[C@H](NC(=O)[C@@H]1CCCN1C(=O)CNC(=O)[C@H](CCCCN)NC(=O)[C@H](Cc1c[nH]cn1)NC(=O)[C@H](CO)NC(=O)[C@H](CC1CCCCC1)NC(=O)[C@H](CCCNC(=N)N)N(C)C(=O)[C@@H]1CCCN1C(=O)[C@H](CCCNC(=N)N)NC(=O)[C@H](CCC(N)=O)NC(=O)[C@H](CCCNC(=N)N)NC(C)=O)C(=O)N1CCC[C@H]1C(=O)N[C@@H](Cc1ccc(Cl)cc1)C(=O)O
EC50 Rat APJ Receptor (rat APJ receptor): 0.156 nM
EC50 Human APJ Receptor (human APJ receptor): 0.0405 nM

B10: SEQ ID NO: 67 (peptide)
peptide: Ac-RQRP[NMeR][NMeL]SHKGP[Nle]P[Phe(4-Cl)]-OH
SMILES: CCCC[C@H](NC(=O)[C@@H]1CCCN1C(=O)CNC(=O)[C@H](CCCCN)NC(=O)[C@H](Cc1c[nH]cn1)NC(=O)[C@H](CO)NC(=O)[C@H](CC(C)C)N(C)C(=O)[C@H](CCCNC(=N)N)N(C)C(=O)[C@@H]1CCCN1C(=O)[C@H](CCCNC(=N)N)NC(=O)[C@H](CCC(N)=O)NC(=O)[C@H](CCCNC(=N)N)NC(C)=O)C(=O)N1CCC[C@H]1C(=O)N[C@@H](Cc1ccc(Cl)cc1)C(=O)O
EC50 Rat APJ Receptor (rat APJ receptor): 1.4 nM
EC50 Human APJ Receptor (human APJ receptor): 0.185 nM

B11: SEQ ID NO: 65 (peptide)
peptide: Ac-RQRP[NMeR]LSHKGP[Nle]P[Phe(4-Cl)]-OH
SMILES: CCCC[C@H](NC(=O)[C@@H]1CCCN1C(=O)CNC(=O)[C@H](CCCCN)NC(=O)[C@H](Cc1c[nH]cn1)NC(=O)[C@H](CO)NC(=O)[C@H](CC(C)C)NC(=O)[C@H](CCCNC(=N)N)N(C)C(=O)[C@@H]1CCCN1C(=O)[C@H](CCCNC(=N)N)NC(=O)[C@H](CCC(N)=O)NC(=O)[C@H](CCCNC(=N)N)NC(C)=O)C(=O)N1CCC[C@H]1C(=O)N[C@@H](Cc1ccc(Cl)cc1)C(=O)O
EC50 Rat APJ Receptor (rat APJ receptor): 0.122 nM
EC50 Human APJ Receptor (human APJ receptor): 0.0302 nM
